Laboratory results as given in patent publication US11274309B2 (dated 2022).

What was measured:
peptide on HLA-A*02:01 = target: T1, peptide on HLA-A*02:01 (human); assay: activation reporter or marker
T1 peptide: VYALPLKML

peptide on HLA-A*24:02 = target: T2, peptide on HLA-A*24:02 (human); assay: activation reporter or marker
T2 peptide: VYALPLKML

B1: JG9-TCR (TCR, V domains shown)
Valpha: GQQLNQSPQSMFIQEGEDVSMNCTSSSIFNTWLWYKQEPGEGPVLLIALYKAGELTSNGRLTAQFGITRKDSFLNISASIPSDVGIYFCAGPMKTSYDKVIFGPGTSLSVIP
Vbeta: DAGVIQSPRHEVTEMGQEVTLRCKPISGHDYLFWYRQTMMRGLELLIYFNNNVPIDDSGMPEDRFSAKMPNASFSTLKIQPSEPRDSAVYFCASSSANYGYTFGSGTRLTVV
Question: Does B1 bind (peptide on HLA-A*02:01)?
Answer: no recognition

Question: Does B1 bind (peptide on HLA-A*24:02)?
Answer: no recognition
